Experiments:
[1] = target: T1, recombinant human GPC2-His protein (Homo sapiens, UniProt Q8N158); assay: SPR (Biacore T200) affinity of anti-GPC2 VHH-hIgG1Fc; conditions: 1:1 binding model
T1 construct: His
T1 sequence (Q8N158 24-554): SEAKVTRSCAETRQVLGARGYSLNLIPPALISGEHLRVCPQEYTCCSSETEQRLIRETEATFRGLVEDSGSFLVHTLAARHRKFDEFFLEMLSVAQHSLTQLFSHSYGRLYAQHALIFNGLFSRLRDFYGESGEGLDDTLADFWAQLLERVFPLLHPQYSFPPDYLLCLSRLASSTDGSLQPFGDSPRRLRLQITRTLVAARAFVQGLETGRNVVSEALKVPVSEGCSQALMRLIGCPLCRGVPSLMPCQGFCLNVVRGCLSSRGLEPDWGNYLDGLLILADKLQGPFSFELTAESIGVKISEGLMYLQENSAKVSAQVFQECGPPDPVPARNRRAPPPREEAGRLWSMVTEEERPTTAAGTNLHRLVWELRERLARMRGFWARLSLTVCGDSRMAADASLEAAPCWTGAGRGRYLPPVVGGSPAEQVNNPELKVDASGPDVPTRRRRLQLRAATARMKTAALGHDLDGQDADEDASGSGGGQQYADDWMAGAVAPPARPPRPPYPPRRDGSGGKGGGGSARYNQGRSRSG
Protocol: Each of the exemplary anti-GPC2 VHH sequences was cloned into a vector comprising a human IgG1Fc fragment (hlgG1Fc) sequence to facilitate recombinant expression of anti-GPC2 VHH-hlgG1Fc. Recombinant proteins were obtained and purified for SPR assays. The affinity of each anti-GPC2 VHH-hIgG1Fc for GPC2 was determined by SPR using a BIACORE® T200 analytical system (GE Healthcare). Briefly, recombinant human GPC2-His protein was covalently coupled to a CM5(s) sensor chip using an amine coupling kit. Exemplary VHH-hIgG1Fc proteins were serially diluted in running buffer (10 mM HEPES, 150 mM NaCl, 3 mM EDTA, 0.05% Tween-20, pH 7.4) and injected over the chip cell at a flowrate of 100 μL/min for 100 seconds followed by buffer-only injection for 300 seconds to allow for antibody dissociation. The dissociation […] (KD) were determined using the BIACORE® T200 evaluation software version 3.0 (Langmuir binding, local fit, 1:1 binding model).

[2] = target: T2, recombinant human GPC2 protein (Homo sapiens, UniProt Q8N158); assay: ELISA-based specific binding assay, human GPC2; conditions: FIG. 3A-3G
T2 construct: His; purchased RD System (R&D Systems) 2304-GP
T2 sequence (Q8N158 24-554): T1 sequence (Q8N158 24-554)
Protocol: (§1) To evaluate the specificity of humanized anti-GPC2 VHH5 to recombinant human GPC2 protein, an ELISA-based binding assay was conducted to determine the differential target proteins binding of anti-GPC2 VHH5. Briefly, microplates were coated with 2 μg/mL recombinant human GPC1-His (RD System, Cat #4519-GP), GPC2-His (RD System, Cat #2304-GP), GPC3-His (ACRO, Cat #GP3-H5223), GPC4-Fc (RD System, Cat #9195-GP), GPC5-His (RD System, Cat #2607-G5/CF), GPC6-His (RD System, Cat #2845-GP) or recombinant mouse GPC2-His (RD System, Cat #2355-GP) proteins. Recombinant human protein coated plates were blocked with skim milk. Serially diluted humanized VHH-hIgG1Fc recombinant antibodies were added to each well of the plates and incubated at 4° C. for 1.5 h. Samples were further labelled with HRP-conjugated goat anti human IgG (H+L) secondary antibody (Genescript, Cat #A00166-1) and signal was developed with 3,3′,5,5′-Tetramethylbenzidine (TMB) substrate according to manufacturer's instruction. For the GPC4, VHH-His recombinant antibodies and anti-His tag secondary antibody (Genescript, Cat #A00612) were added to the GPC4-Fc coated plates instead. Optic density at 450 nm was measured by plate reader.

[3] = tested on: other recombinant human and murine GPC family proteins (human GPC1, GPC3, GPC4, GPC5, GPC6, mouse GPC2); assay: ELISA-based specific binding assay, cross-reactivity; conditions: FIG. 3A-3G
Protocol: as §1

[4] = tested on: GPC2 negative human epidermoid carcinoma cell line A-431; assay: In vitro cytotoxicity assay (LDH), A-431; format: cell-based; conditions: FIG. 7G
Protocol: The pre-activated T cells were transduced with lentivirus stock in the presence of […] polybrene and 300 IU/mL IL-2. T cells and lentivirus were centrifuged at 1000 g, 32° C. for 1 h and placed in humidified cell culture incubator for transgene expression under suitable conditions. On day 5 or day 7 or day 10 post-transduction, transduced T cells were harvested and co-incubated with tumor cells at an effector (CAR T) to target cell ratio of 10:1 or 5:1 or 2:1 or 1:1 or 0.2:1 for 20 hours. Target cells were human neuroblastoma cell line SH-SY5Y (ATCC, #CRL-2266), human neuroblastoma cell line IMR-32 cells (ATCC, #CCL-127), or human epidermoid carcinoma cell line A-431 (ATCC, #CRL-1555). To assay the cytotoxicity of CAR T cells on tumor cells, the Cytotoxicity Detection Kit (LDH) (Roche, #11644793001) assay reagents were prepared according to manufacturer's protocol. Reaction mix was added to the cell-free supernatant of each sample to detect the LDH released from cells. Optical densities at OD492 nm and OD650 nm were measured by PHERStar Microplate Reader. Baseline LDH released from the target cell in the absence of effector cells and effector cell in the absence of target cells were subtracted from the total LDH amount. The target maximum release was obtained by adding Triton-X100 at a final concentration of 1% to target cells in the absence of effector cells at the time when the cytotoxicity assays initiated. […] The specific cytotoxicity was calculated by the formula: % Target cell lysis=100*[(OD CAR T cell+Target cell)−(OD CAR T cell)−(OD Target cell)+(OD Buffer background)]/(OD Target Maximum release−OD Target Minimum release).
On day 5 or day 8 or day 10 post-transduction, transduced T cells were harvested and co-incubated with tumor cells at an effector (CAR T) to target cell ratio of 10:1 or 1:1 or 0.2:1 for 20 hours. To assay the cytotoxicity of CAR T cells on tumor cells, the Cytotoxicity Detection Kit (LDH) (Roche, #11644793001) was added to the culture supernatant and the specific cytotoxicity for each CAR T cell construct was measured as described in Example 6.

B1: AS78117VH4-hIgG1Fc: AS78117VH4 VHH fused to human IgG1Fc fragment (protein)
chain: EVQLVESGGGLVQPGGSLRLSCIVSRYTYATYSMAWFRQAPGKGLEGVSGLDSVGATGYAESVKGRFTISRDNSKNTLYLQMNSLRAEDTAVYYCVVDPASAKVTYGSWSTPSYAYWGQGTLVTVSS
modifications: left off: a dimerising Fc or GST
notes: AS78117VH4 VHH fused to human IgG1Fc fragment
B1 was tested, and the “ka” value [1] was 200000 M⁻¹ s⁻¹, the “kd” value [1] was 0.00017 s⁻¹ and the “binding to recombinant human GPC2 protein” value (from here on “binding”) [2] was “high affinity”. The “cross-reactivity with other recombinant human and murine GPC family proteins” value (“cross-reactivity” below) [3] was “no cross-reactivity”.

B2: AS79236VH6-hIgG1Fc: AS79236VH6 VHH fused to human IgG1Fc fragment (protein)
chain: EVQLVESGGGLVQPGGSLRLSCAVSGYTYSSYCMAWFRQAPGKGLEGVASIDAGGRTTYVDSVKGRFTISKDNAKNSLYLQMNSLRAEDTAMYYCAVDVRTRCGGTWDGEAVYFPYWGQGTLVTVSS
modifications: left off: a dimerising Fc or GST
notes: AS79236VH6 VHH fused to human IgG1Fc fragment
For B2, the “ka” value [1] was 530000 M⁻¹ s⁻¹, the “kd” value [1] was 0.00019 s⁻¹ and the “binding” value [2] was “high affinity”. For the same molecule, the “cross-reactivity” value [3] was “no cross-reactivity”.

B3: AS70950VH6-hIgG1Fc: AS70950VH6 VHH fused to human IgG1Fc fragment (protein)
chain: EVQLVESGGGLVQPGGSLRLSCAISEFTYKNTCVGWFRQAPGKGREGVAAIDSDGNTNYVDSVKGRFTISQDNSKNTVYLQMNSLRAEDTAMYYCAAGAYCGRLLLWIGNYAYWGQGTLVTVSS
modifications: left off: a dimerising Fc or GST
notes: AS70950VH6 VHH fused to human IgG1Fc fragment
With B3 the “ka” value [1] was 390000 M⁻¹ s⁻¹, the “kd” value [1] was 0.00011 s⁻¹ and the “binding” value [2] was “high affinity”. The “cross-reactivity” value [3] was “no cross-reactivity”.

B4: CAS78117VH4-BBz: humanized VHH anti-GPC2 CAR (4-1BB, CD3ζ), SEQ ID NO: 227; tested as CAR T cells (protein)
chain: MALPVTALLLPLALLLHAARPEVQLVESGGGLVQPGGSLRLSCIVSRYTYATYSMAWFRQAPGKGLEGVSGLDSVGATGYAESVKGRFTISRDNSKNTLYLQMNSLRAEDTAVYYCVVDPASAKVTYGSWSTPSYAYWGQGTLVTVSSTTTPAPRPPTPAPTIASQPLSLRPEACRPAAGGAVHTRGLDFACDIYIWAPLAGTCGVLLLSLVITLYCKRGRKKLLYIFKQPFMRPVQTTQEEDGCSCRFPEEEEGGCELRVKFSRSADAPAYKQGQNQLYNELNLGRREEYDVLDKRRGRDPEMGGKPRRKNPQEGLYNELQKDKMAEAYSEIGMKGERRRGKGHDGLYQGLSTATKDTYDALHMQALPPR
modifications: expressed in CAR T cells; CAS78117VH4-BBz
For B4, the “cytotoxicity against GPC2 negative A-431” value [4] was “no cytotoxicity”.

B5: CAS79236VH6-BBz: humanized VHH anti-GPC2 CAR (4-1BB, CD3ζ), SEQ ID NO: 233; tested as CAR T cells (protein)
chain: MALPVTALLLPLALLLHAARPEVQLVESGGGLVQPGGSLRLSCAVSGYTYSSYCMAWFRQAPGKGLEGVASIDAGGRTTYVDSVKGRFTISKDNAKNSLYLQMNSLRAEDTAMYYCAVDVRTRCGGTWDGEAVYFPYWGQGTLVTVSSTTTPAPRPPTPAPTIASQPLSLRPEACRPAAGGAVHTRGLDFACDIYIWAPLAGTCGVLLLSLVITLYCKRGRKKLLYIFKQPFMRPVQTTQEEDGCSCRFPEEEEGGCELRVKFSRSADAPAYKQGQNQLYNELNLGRREEYDVLDKRRGRDPEMGGKPRRKNPQEGLYNELQKDKMAEAYSEIGMKGERRRGKGHDGLYQGLSTATKDTYDALHMQALPPR
modifications: expressed in CAR T cells; CAS79236VH6-BBz
In the case of B5, the “cytotoxicity against GPC2 negative A-431” value [4] is reported as “no cytotoxicity”.
